Tests used:
[1] = target: T1, cynomolgus monkey FcγRIIa1 extracellular domain, His-tagged (cynomolgus monkey); experiment: SPR (Biacore), 25C, KD of SG1 / KD of variant
T1 construct: also called cyno FcgRIIa1
T1 chain: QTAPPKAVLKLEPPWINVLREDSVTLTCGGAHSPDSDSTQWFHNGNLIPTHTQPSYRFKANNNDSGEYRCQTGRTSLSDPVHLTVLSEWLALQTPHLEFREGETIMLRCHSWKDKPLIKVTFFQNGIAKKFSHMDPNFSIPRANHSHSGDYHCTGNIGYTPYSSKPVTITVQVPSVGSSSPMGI

[2] = target: T2, cynomolgus monkey FcγRIIa2 extracellular domain, His-tagged (cynomolgus monkey); experiment: SPR (Biacore), 25C, KD of SG1 / KD of variant
T2 construct: also called cyno FcgRIIa2
T2 chain: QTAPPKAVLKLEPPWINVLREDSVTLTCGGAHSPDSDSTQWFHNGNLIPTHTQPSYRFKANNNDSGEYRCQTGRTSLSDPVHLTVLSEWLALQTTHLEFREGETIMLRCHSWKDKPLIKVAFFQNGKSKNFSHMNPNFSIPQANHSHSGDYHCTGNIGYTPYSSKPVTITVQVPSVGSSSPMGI

[3] = target: T3, cynomolgus monkey FcγRIIa3 extracellular domain, His-tagged (cynomolgus monkey); experiment: SPR (Biacore), 25C, KD of SG1 / KD of variant
T3 construct: also called cyno FcgRIIa3
T3 chain: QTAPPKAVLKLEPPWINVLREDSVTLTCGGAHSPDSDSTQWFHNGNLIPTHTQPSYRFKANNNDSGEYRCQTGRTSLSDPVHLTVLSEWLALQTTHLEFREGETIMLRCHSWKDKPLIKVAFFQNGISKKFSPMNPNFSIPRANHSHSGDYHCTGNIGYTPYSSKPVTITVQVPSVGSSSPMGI

[4] = target: T4, cynomolgus monkey FcγRIIb extracellular domain, His-tagged (cynomolgus monkey); experiment: SPR (Biacore), 25C, KD of SG1 / KD of variant
T4 construct: also called cyno FcgRIIb
T4 chain: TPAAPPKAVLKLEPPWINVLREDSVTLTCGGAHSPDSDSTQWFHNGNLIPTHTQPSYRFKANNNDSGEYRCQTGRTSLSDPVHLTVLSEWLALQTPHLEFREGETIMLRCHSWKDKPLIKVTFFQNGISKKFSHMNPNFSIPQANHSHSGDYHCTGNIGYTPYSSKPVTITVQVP

[5] = target: T5, cynomolgus monkey FcγRIIIaS extracellular domain, His-tagged (cynomolgus monkey, UniProt Q8SPW2 21-206 at identity 1.00)); experiment: SPR (Biacore), 25C, KD of SG1 / KD of variant
T5 construct: also called cyno FcgRIIIaS
T5 chain: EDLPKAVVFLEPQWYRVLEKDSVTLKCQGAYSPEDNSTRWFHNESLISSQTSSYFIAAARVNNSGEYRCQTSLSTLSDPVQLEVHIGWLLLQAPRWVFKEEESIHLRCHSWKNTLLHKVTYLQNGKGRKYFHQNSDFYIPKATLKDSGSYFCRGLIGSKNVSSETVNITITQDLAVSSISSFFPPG

[6] = target: T6, human FcγRIIaH extracellular domain, His-tagged (human, UniProt P12318 34-217); experiment: SPR (Biacore), 25C, KD of SG1 / KD of variant
T6 construct: also called human FcgRIIaH; FcγRIIa type H
T6 sequence: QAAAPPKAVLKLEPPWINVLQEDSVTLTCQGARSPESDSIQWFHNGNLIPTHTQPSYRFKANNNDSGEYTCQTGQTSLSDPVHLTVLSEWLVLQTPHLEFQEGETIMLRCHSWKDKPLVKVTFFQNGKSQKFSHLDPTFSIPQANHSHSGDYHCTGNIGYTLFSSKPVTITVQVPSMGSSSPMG

[7] = target: T7, human FcγRIIaR extracellular domain, His-tagged (human, UniProt P12318 34-217); experiment: SPR (Biacore), 25C, KD of SG1 / KD of variant
T7 construct: also called human FcgRIIaR; FcγRIIa type R
T7 chain: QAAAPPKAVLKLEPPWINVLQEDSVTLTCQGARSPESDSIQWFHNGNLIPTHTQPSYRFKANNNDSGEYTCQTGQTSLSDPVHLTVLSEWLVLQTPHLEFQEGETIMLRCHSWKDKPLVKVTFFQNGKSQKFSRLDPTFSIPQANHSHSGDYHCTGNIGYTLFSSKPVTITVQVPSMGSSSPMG

[8] = target: T8, human FcγRIIb extracellular domain, His-tagged (human, UniProt P31994 43-217); experiment: SPR (Biacore), 25C, KD of SG1 / KD of variant
T8 construct: also called human FcgRIIb
T8 sequence: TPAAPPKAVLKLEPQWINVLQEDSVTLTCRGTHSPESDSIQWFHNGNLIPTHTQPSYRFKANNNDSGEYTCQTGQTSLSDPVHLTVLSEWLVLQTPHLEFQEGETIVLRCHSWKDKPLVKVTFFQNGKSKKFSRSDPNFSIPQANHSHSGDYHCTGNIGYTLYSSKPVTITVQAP

[9] = target: T9, human FcγRIIIaV extracellular domain, His-tagged (human, UniProt P08637 17-208); experiment: SPR (Biacore), 25C, KD of SG1 / KD of variant
T9 construct: also called human FcgRIIIaV
T9 sequence (P08637 17-208 F176V): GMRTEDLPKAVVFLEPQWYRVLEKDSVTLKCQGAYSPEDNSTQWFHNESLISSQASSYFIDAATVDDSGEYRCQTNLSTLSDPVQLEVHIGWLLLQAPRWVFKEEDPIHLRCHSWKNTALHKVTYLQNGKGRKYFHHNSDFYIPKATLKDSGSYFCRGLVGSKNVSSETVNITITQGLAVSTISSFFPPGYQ

[10] = target: T2, cynomolgus monkey FcγRIIa2 …; experiment: SPR (Biacore), 25C, antibody captured, FcgR as analyte
Experimental: (§1) The kinetic analysis of interactions between these antibodies and FcγR was carried out using BIACORE® T200 or BIACORE® 4000 (GE Healthcare). HBS-EP+ (GE Healthcare) was used as the running buffer, and the measurement temperature was set to 25° C. […] After the measurement, the antibody captured on the chip was washed off by allowing reaction with 10 mM glycine-HCl, pH1.5 and 25 mM NaOH so that the chip was regenerated and used repeatedly. The sensorgrams obtained as measurement results were analyzed by the 1:1 Langmuir binding model using the BIACORE® Evaluation Software to calculate the binding rate constant ka (L/mol/s) and dissociation rate constant kd (1/s), and the dissociation constant KD (mol/L) was calculated from these values. […] Regarding such interactions, KD values were calculated using the following 1:1 binding model described in BIACORE® T100 Software Handbook BR1006-48 Edition AE.

[11] = target: T4, cynomolgus monkey FcγRIIb extracellular …; experiment: as above
Experimental: as §1

[12] = target: T6, human FcγRIIaH extracellular domain, …; experiment: as above
Experimental: as §1

[13] = target: T7, human FcγRIIaR extracellular domain, …; experiment: as above
Experimental: as §1

[14] = target: T9, human FcγRIIIaV extracellular domain, …; experiment: as above
Experimental: as §1

[15] = target: T10, cynomolgus monkey FcγRIIIaS extracellular domain, His-tagged (cynomolgus monkey, UniProt Q8SPW2 21-206 at identity 1.00)); experiment: SPR (BIACORE), antibody captured, FcγR analyte, 25 C; KD of SG1 divided by KD of variant
T10 construct: also called cyno FcγRIIIaS; cynoFcgRIIIaS
T10 chain: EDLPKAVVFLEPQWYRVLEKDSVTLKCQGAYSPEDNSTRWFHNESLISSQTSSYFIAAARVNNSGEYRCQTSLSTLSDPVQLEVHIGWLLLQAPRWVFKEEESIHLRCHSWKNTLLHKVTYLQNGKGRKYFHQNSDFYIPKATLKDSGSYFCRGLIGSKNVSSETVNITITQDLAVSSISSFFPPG

[16] = target: T11, human FcγRIIaR extracellular domain, His-tagged (human, UniProt P12318 34-217); experiment: as above
T11 construct: also called human FcγRIIa (type R); FcgRIIaR
T11 chain: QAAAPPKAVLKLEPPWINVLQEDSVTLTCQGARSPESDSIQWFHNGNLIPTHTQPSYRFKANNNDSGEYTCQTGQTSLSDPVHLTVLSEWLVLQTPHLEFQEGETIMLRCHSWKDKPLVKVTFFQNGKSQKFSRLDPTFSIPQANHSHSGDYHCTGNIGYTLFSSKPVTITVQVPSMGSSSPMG

[17] = target: T12, human FcγRIIaH extracellular domain, His-tagged (human, UniProt P12318 34-217); experiment: as above
T12 construct: also called human FcγRIIa (type H); FcgRIIaH
T12 sequence: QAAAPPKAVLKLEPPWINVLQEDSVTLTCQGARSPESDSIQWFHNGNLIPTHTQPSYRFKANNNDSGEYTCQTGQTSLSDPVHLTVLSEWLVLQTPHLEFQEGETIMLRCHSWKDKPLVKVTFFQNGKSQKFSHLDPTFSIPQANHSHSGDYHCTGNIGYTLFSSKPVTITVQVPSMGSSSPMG

[18] = target: T13, human FcγRIIb extracellular domain, His-tagged (human, UniProt P31994 43-217); experiment: as above
T13 construct: also called human FcgRIIb; FcgRIIb (human)
T13 sequence: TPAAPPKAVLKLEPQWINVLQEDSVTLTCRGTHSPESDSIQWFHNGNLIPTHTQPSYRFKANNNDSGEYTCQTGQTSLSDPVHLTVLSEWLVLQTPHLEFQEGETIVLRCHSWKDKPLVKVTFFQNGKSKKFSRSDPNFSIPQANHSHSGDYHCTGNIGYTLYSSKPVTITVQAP

[19] = target: T14, human FcγRIIIaV extracellular domain, His-tagged (human, UniProt P08637 17-208); experiment: as above
T14 construct: also called human FcγRIIIa (V158); FcgRIIIaV
T14 sequence (P08637 17-208 F176V): as the sequence (P08637 17-208 F176V) above

B1: MS1032LO06-MY009 (antibody, human IgG1, kappa)
heavy: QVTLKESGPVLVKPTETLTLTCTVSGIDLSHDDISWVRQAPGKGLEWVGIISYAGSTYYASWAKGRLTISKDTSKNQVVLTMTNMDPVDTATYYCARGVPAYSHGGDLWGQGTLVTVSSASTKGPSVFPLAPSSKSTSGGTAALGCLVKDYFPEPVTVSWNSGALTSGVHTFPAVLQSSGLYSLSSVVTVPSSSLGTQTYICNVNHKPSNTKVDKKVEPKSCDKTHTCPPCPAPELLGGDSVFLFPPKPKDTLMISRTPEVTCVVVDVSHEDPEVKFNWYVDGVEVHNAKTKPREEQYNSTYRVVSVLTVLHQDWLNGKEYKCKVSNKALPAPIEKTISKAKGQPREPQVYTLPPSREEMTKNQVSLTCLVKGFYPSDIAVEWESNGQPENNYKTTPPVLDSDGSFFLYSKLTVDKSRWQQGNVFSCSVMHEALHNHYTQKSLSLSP
light: DIVMTQSPATLSLSPGERATLSCTSSQSVYHANWLSWFQQKPGQPPKLLIYWASTLAYGVPSRFSGSGSGTDFTLTISSLQPEDAATYYCAGGYGGGRYAFGQGTKVEIKRTVAAPSVFIFPPSDEQLKSGTASVVCLLNNFYPREAKVQWKVDNALQSGNSQESVTEQDSKDSTYSLSSTLTLSKADYEKHKVYACEVTHQGLSSPVTKSFNRGEC
notes: SG1 with P238D (EU numbering); also called M103205H795-MY009/M103202L889-SK1
B1 was tested, and the “KD fold (SG1 = 1)” value [1] was 0.2, the “KD fold (SG1 = 1)” value [2] was 0.2 and the “KD fold (SG1 = 1)” value [3] was 0.5. For the same binder, the “KD fold (SG1 = 1)” value [4] was 0.4, the “KD fold (SG1 = 1)” value [5] was 0.004 and the “KD fold (SG1 = 1)” value [6] was 0.01. The “KD fold (SG1 = 1)” value [7] was 0.1, the “KD fold (SG1 = 1)” value [8] was 3.3 and the “KD fold (SG1 = 1)” value [9] was 0.002. For the same binder, the Kd [10] was 2 µM, the Kd [11] was 4.3 µM and the Kd [12] was 3.5 µM. For the same binder, the Kd [13] was 2 µM and the Kd [14] was 550 µM.

B2: M103205H795-MY458/M103202L889-SK1 (antibody, human IgG1, kappa, name in EU numbering)
heavy: QVTLKESGPVLVKPTETLTLTCTVSGIDLSHDDISWVRQAPGKGLEWVGIISYAGSTYYASWAKGRLTISKDTSKNQVVLTMTNMDPVDTATYYCARGVPAYSHGGDLWGQGTLVTVSSASTKGPSVFPLAPSSKSTSGGTAALGCLVKDYFPEPVTVSWNSGALTSGVHTFPAVLQSSGLYSLSSVVTVPSSSLGTQTYICNVNHKPSNTKVDKKVEPKSCDKTHTCPPCPAYELLTGPSVFLFPPKPKDTLMISRTPEVTCVVVDVSDEDPEVKFNWYVDGVEVHNAKTKPREEQYNSTYRVVSVLTVLHQDWLNGKEYKCKVSNKALPKPIEKTISKAKGQPREPQVYTLPPSREEMTKNQVSLTCLVKGFYPSDIAVEWESNGQPENNYKTTPPVLDSDGSFFLYSKLTVDKSRWQQGNVFSCSVMHEALHNHYTQKSLSLSP
light: DIVMTQSPATLSLSPGERATLSCTSSQSVYHANWLSWFQQKPGQPPKLLIYWASTLAYGVPSRFSGSGSGTDFTLTISSLQPEDAATYYCAGGYGGGRYAFGQGTKVEIKRTVAAPSVFIFPPSDEQLKSGTASVVCLLNNFYPREAKVQWKVDNALQSGNSQESVTEQDSKDSTYSLSSTLTLSKADYEKHKVYACEVTHQGLSSPVTKSFNRGEC
For B2, the “KD fold (SG1 = 1)” value [15] was 0.2 fold and the “KD fold (SG1 = 1)” value [16] was 4.3 fold.

B3: M103205H795-MY450/M103202L889-SK1 (antibody, human IgG1, kappa, name in EU numbering)
heavy: QVTLKESGPVLVKPTETLTLTCTVSGIDLSHDDISWVRQAPGKGLEWVGIISYAGSTYYASWAKGRLTISKDTSKNQVVLTMTNMDPVDTATYYCARGVPAYSHGGDLWGQGTLVTVSSASTKGPSVFPLAPSSKSTSGGTAALGCLVKDYFPEPVTVSWNSGALTSGVHTFPAVLQSSGLYSLSSVVTVPSSSLGTQTYICNVNHKPSNTKVDKKVEPKSCDKTHTCPPCPAMELLTGPSVFLFPPKPKDTLMISRTPEVTCVVVDVSDEDPEVKFNWYVDGVEVHNAKTKPREEQYNSTYRVVSVLTVLHQDWLNGKEYKCKVSNKALPKPIEKTISKAKGQPREPQVYTLPPSREEMTKNQVSLTCLVKGFYPSDIAVEWESNGQPENNYKTTPPVLDSDGSFFLYSKLTVDKSRWQQGNVFSCSVMHEALHNHYTQKSLSLSP
light: DIVMTQSPATLSLSPGERATLSCTSSQSVYHANWLSWFQQKPGQPPKLLIYWASTLAYGVPSRFSGSGSGTDFTLTISSLQPEDAATYYCAGGYGGGRYAFGQGTKVEIKRTVAAPSVFIFPPSDEQLKSGTASVVCLLNNFYPREAKVQWKVDNALQSGNSQESVTEQDSKDSTYSLSSTLTLSKADYEKHKVYACEVTHQGLSSPVTKSFNRGEC
B3 was tested, and the “KD fold (SG1 = 1)” value [17] was 5.3 fold, the “KD fold (SG1 = 1)” value [18] was 9.8 fold and the “KD fold (SG1 = 1)” value [19] was 0.2 fold.
